From patent publication US20090191117A1 (published 2009) come the findings set out here.

The Kd is the concentration at which binding is half-saturated. Low readings indicate higher affinity, high ones lower affinity. By EC50 is commonly meant the concentration giving half of the maximal effect.

Assay [1] has as its target T1, human αVβ5 integrin, purified (human, UniProt P06756 31-1048; P18084 24-799).
T1 construct: Bought from Chemicon (Triton or octyl formulation); also called alphaVbeta5; aVb5
As to the kind of experiment: saturation binding ELISA on αvβ5 coated plate, non-linear fit, n = 6. In general terms: An ELISA detects its analyte on a solid surface through an enzyme-linked reagent.
Procedure: (§1) αᵥβ₃ or αᵥβ₅ integrin was diluted to 1 μg/ml in Tris-buffered saline (TBS, 10 mM Tris, 100 mM NaCl, pH 7.5) containing 2 mM calcium chloride (TBS/Ca⁺⁺) and coated at 50 μl per well onto 96 well polystyrene Linbro plates (Flow/ICN) overnight at 4° C. Plates were washed with TBS/Ca⁺⁺ and blocked with 1% bovine serum albumin (BSA) in TBS/Ca⁺⁺ for 1 h at room temperature. Fifty microliters of diluted antibody was added in triplicate to coated wells and incubated for 2 h at 37° C. […] Plates were washed three times, and developed with o-phenylenediamine dihydrochloride substrate solution (OPD, Sigma) consisting of 0.1 M citric acid, 0.2M sodium phosphate, 0.01% H₂O₂ and 1 mg/ml OPD. Color development was stopped after 15 min at room temperature with 0.3 N H₂SO₄, and plates were read at OD₄₉₀ nm in the Molecular Dynamics plate reader.

The target in assay [2] is T2, integrin aIIbb3 from human placenta extract (human, UniProt P08514 32-1039; P05106 27-788).
T2 construct: mature; only the aIIb subunit was probed; also called aIIbβ3; GPIIb/IIIa
As to the kind of experiment: CNTO 95 affinity column on human placenta extract, Western blot with anti-aIIb.
Procedure: (§2) Western blot. […] The filters were blocked with 5% nonfat dry milk in TBS containing 0.05% Tween 20 (wash buffer) at room temperature for 1 hour and then incubated with anti-integrin antibodies (anti-a5 (P-19) Santa Cruz, goat polyclonal IgG 1:500 dilution; anti-aIIb, Chemicon, mouse monoclonal IgG1, 1:1000 dilution; anti-αV (Q-20), Santa Cruz, goat polyclonal IgG, 1:500 dilution; anti-b1 (4B7R), Santa Cruz, mouse monoclonal IgG1, 1:500 dilution; anti-b1 (N-20), Santa Cruz, goat polyclonal IgG, 1:500 dilution; anti-β3 (H-96), Santa Cruz, rabbit polyclonal IgG, 1:500 dilution; anti-β5 (H-96), Santa Cruz, rabbit polyclonal IgG, 1:500 dilution; anti-β6 (H-110), Santa Cruz, rabbit polyclonal IgG, 1:250 dilution). After thorough washing, filters were incubated with appropriate peroxidase-conjugated secondary antibodies (1:20000 dilution). The antigen-antibody complexes were visualized using SuperSignal West Pico Chemiluminescent Substrate kit (Pierce).

Assay [3] addresses T3, human αVβ3 integrin, purified (human, UniProt P06756 31-1048; P05106 27-788).
T3 construct: mature; Detergent-extracted heterodimer purified from human placenta at Centocor, or bought from Chemicon; coated on plates or in solution; also called alphaVbeta3; aVb3
As to the kind of experiment: saturation binding ELISA on αvβ3 coated plate, non-linear fit, n = 6.
Procedure: as §1

The target of assay [4] is T3, human αVβ3 integrin, purified. As to the kind of experiment: EIA, purified antibody titrated on αVβ3 coated plates.
In assay [5] the target is T4, αvβ5 integrin on HT-29 human colon carcinoma cells (human, UniProt P06756 31-1048; P18084 24-799).
T4 construct: whole, on cells; also called HT-29 cells; HT29 cells
As to the kind of experiment: 125-I antibody saturation binding to HT-29 cells, n = 5.
Procedure: (§3) Cells were plated 2 days prior to experiment, and 1×10⁵ cells/well at the time of study. […] Nonspecific binding was determined using 100× cold mAb in media. Cells were washed 3× and counted for bound radioactivity. Each curve represents 4-5 separate studies, and each data point in an experiment was the mean of triplicate samples.

Assay [6] concerns the target T4, αvβ5 integrin on HT-29 human colon …. As to the kind of experiment: 125-I antibody saturation binding to HT-29 cells, rounded value.
Procedure: as §3
For assay [7], the target named is T5, integrin a5b1 from human placenta extract (human, UniProt P08648 42-1049; P05556 21-798).
T5 construct: mature; only the a5 subunit was probed; also called a5 containing heterodimers
As to the kind of experiment: CNTO 95 affinity column on human placenta extract, Western blot with anti-integrin a5. A general note: In western blotting, separated proteins are transferred to a membrane and probed.
Procedure: as §2

The target in assay [8] is T4, αvβ5 integrin on HT-29 human colon …. As to the kind of experiment: 125-I antibody saturation binding to HT-29 cells.
Procedure: as §3
The target in assay [9] is T1, human αVβ5 integrin, purified. As to the kind of experiment: comparison of the KD values on integrin coated plates.
Assay [10] shares this target. As to the kind of experiment: saturation binding ELISA on αvβ5 coated plate, non-linear fit, six experiments.
Procedure: as §1

T4 sequence (P06756 31-1048, chain 1 of 2): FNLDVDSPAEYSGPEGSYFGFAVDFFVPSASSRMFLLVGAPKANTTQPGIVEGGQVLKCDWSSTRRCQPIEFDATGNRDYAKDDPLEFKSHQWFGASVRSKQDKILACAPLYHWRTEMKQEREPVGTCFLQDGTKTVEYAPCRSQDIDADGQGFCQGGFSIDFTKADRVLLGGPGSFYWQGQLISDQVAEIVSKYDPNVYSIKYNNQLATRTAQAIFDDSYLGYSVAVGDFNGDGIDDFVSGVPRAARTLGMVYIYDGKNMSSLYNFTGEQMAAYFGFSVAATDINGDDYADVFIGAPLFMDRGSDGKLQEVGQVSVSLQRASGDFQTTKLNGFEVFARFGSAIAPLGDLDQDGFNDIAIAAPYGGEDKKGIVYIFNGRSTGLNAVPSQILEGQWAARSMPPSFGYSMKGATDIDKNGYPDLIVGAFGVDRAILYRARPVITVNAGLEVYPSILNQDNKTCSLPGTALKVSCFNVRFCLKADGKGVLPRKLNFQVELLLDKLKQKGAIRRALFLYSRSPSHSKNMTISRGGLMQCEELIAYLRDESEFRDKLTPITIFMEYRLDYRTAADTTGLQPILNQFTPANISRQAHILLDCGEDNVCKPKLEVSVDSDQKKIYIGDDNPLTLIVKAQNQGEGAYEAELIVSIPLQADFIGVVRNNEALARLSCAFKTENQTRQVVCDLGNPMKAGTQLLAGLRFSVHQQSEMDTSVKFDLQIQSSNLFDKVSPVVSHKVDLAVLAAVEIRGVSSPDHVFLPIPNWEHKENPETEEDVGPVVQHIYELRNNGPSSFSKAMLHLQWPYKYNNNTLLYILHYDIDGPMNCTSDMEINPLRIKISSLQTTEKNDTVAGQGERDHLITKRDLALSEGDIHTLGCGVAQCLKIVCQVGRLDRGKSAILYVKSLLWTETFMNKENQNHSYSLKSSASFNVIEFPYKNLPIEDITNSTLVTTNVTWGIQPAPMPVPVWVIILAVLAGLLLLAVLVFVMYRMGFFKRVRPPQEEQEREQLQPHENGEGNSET
T4 sequence (P18084 24-799, chain 2 of 2): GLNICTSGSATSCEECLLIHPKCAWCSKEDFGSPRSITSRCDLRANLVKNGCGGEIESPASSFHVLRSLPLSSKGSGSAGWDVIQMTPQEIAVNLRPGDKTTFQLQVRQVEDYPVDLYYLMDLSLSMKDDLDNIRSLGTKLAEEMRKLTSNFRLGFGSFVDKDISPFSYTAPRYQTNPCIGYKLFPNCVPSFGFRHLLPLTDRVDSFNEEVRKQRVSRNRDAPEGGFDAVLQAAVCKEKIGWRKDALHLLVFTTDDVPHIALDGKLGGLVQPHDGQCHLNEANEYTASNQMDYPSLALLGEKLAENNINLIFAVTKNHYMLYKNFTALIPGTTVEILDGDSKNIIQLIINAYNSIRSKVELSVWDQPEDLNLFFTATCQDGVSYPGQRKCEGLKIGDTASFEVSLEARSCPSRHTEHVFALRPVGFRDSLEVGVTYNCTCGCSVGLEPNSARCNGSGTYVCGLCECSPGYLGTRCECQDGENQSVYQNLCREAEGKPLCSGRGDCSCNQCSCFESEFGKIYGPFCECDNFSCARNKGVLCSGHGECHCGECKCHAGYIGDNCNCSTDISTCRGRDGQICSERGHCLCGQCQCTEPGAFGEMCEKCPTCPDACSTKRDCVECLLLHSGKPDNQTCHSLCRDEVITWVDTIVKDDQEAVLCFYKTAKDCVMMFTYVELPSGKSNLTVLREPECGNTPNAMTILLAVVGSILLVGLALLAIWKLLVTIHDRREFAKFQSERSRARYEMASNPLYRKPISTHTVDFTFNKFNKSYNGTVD
T1 sequence (P06756 31-1048, form in doubt, chain 1 of 2): as the sequence (P06756 31-1048, chain 1 of 2) above
T1 sequence (P18084 24-799, form in doubt, chain 2 of 2): as the sequence (P18084 24-799, chain 2 of 2) above
T3 sequence (P06756 31-1048, form in doubt, chain 1 of 2): as the sequence (P06756 31-1048, chain 1 of 2) above
T3 sequence (P05106 27-788, form in doubt, chain 2 of 2): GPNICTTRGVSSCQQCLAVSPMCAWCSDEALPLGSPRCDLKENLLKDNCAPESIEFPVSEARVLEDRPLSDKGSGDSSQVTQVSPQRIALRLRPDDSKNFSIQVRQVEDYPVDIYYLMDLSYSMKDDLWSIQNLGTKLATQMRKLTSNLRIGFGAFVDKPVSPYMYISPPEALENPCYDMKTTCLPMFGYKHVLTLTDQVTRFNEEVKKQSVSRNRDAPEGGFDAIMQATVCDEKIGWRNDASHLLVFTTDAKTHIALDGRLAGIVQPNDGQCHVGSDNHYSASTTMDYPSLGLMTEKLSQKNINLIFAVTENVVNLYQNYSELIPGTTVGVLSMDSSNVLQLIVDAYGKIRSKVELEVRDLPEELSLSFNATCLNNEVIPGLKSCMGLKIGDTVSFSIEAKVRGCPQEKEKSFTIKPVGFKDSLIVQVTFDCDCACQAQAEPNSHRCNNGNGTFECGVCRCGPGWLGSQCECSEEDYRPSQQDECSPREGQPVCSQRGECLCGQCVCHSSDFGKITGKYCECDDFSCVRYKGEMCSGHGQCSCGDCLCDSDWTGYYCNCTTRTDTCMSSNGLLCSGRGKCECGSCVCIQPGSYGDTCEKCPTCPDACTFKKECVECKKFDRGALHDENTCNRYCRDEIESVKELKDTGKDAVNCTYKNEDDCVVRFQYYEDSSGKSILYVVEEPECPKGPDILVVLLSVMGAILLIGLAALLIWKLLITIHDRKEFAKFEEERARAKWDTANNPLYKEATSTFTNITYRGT
T2 sequence (P08514 32-1039, chain 1 of 2): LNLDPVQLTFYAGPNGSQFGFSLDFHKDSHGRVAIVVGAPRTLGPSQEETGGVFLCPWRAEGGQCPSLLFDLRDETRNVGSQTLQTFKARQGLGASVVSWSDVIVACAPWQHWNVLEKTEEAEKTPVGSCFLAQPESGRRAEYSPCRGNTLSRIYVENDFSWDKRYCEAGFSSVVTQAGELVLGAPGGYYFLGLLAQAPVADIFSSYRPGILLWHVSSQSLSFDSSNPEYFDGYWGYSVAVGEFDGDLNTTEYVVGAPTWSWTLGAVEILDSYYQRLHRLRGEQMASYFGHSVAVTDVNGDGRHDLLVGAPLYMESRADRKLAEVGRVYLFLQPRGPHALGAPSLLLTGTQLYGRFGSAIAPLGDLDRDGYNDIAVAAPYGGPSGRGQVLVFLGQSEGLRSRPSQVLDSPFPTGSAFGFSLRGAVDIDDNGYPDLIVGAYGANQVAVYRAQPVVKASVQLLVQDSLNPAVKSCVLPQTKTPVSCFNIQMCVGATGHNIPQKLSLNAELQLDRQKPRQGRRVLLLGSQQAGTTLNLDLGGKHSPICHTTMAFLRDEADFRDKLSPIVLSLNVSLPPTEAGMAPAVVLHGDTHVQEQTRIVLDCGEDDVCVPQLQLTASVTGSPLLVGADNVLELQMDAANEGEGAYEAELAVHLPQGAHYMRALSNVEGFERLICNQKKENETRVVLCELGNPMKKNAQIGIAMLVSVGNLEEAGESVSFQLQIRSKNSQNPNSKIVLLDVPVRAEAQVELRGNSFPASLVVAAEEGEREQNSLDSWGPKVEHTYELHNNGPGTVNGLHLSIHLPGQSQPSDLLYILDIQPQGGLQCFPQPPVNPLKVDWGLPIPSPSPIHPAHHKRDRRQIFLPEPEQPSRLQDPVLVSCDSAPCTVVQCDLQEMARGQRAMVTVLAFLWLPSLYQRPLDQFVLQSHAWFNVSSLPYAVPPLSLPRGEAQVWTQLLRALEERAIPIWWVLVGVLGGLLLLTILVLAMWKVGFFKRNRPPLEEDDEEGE
T2 sequence (P05106 27-788, chain 2 of 2): as the sequence (P05106 27-788, form in doubt, chain 2 of 2) above

B1: CNTO 95 (antibody, V domains shown)
VH: QVQLVESGGGVVQPGRSRRLSCAASGFTFSRYTMHWVRQAPGKGLEWVAVISFDGSNKYYVDSVKGRFTISRDNSENTLYLQVNILRAEDTAVYYCAREARGSYAFDIWGQGTMVTVSS
VL: EIVLTQSPATLSLSPGERATLSCRASQSVSSYLAWYQQKPGQAPRLLIYDASNRATGIPARFSGSGSGTDFTLTISSLEPEDFAVYYCQQRSNWPPFTFGPGTKVDIK
notes: Fully human IgG1 kappa from a transgenic mouse hybridoma; also called GenO95; C371A
Take B1: the Kd in assay [1] was 0.25 nM; in assay [3], 0.21 nM; in assay [5], 1.3 nM; in assay [6], 1 nM; in [8] it was 0.13 nM; in assay [10], 0.025 nM. The binding result in assay [2] and in assay [7] was “no binding” in each case. Moreover, the EC50 in [4] worked out at 0.7 µg/mL. The “fold higher affinity than for αvβ3 purified integrin” value in [9] is approximately 8 fold.
